In paper PMC13626733, “Molecular basis of high-torque transmission of the Vibrio polar flagellar motor” (Protein & Cell, 2026):

How the values were obtained:
Experiment in all cases: cryo-EM structure; polar flagellar motor-hook complex purified as a whole from V. alginolyticus KK148 ΔflgL; local refinements of the LPHT ring, hook, rod, export apparatus and MS ring; LPHT ring particles also obtained by disassembling the complex at reduced salt
[1] = biological target: FlgH (Vibrio alginolyticus (endogenous in strain KK148 ΔflgL))
[2] = biological target: FlgI (Vibrio alginolyticus (endogenous in strain KK148 ΔflgL))
[3] = biological target: FlgT (Vibrio alginolyticus (endogenous in strain KK148 ΔflgL))
[4] = biological target: the molecule itself

Q: Which stoichiometry N [1] does the source give for FlgH (natural protein) here?
A: The stoichiometry N was 26.

Q: FlgI (natural protein) was tested. Which stoichiometry N [2] did it give?
A: The stoichiometry N was 26.

Q: For FlgT (natural protein), which stoichiometry N [3] is on record?
A: Its stoichiometry N is 26.

B1: FliF (natural protein, UniProt Q75N27 1-580, looked up)
chain: MADKSTDLTVTEGGSDGALVASSDVDVESQNPDLEERSASKFDMAVGDLDLLRQVVLVLSISICVALIVMLFFWVKEPEMRPLGAYETEELIPVLDYLDQQKINYKLDGNTISVESSEYNSIKLGMVRSGVNQATEAGDDILLQDMGFGVSQRLEQERLKLSRERQLAQAIEEMKQVRKARVLLALPKHSVFVRHNQEASASVFLTLSTGTNLKQQEVDSIVDMVASAVPGMKTSRITVTDQHGRLLSSGSQDPASAARRKEQELERSQEQALREKIDSVLLPILGYGNYTAQVDIQMDFSAVEQTRKRFDPNTPATRSEYALEDYNNGNMVAGIPGALSNQPPADASIPQDVAQMKDGSVMGQGSVRKESTRNFELDTTISHERKQTGTVARQTVSVAIKDRRQVNPDTGEVTYTPMSESEINAIRQVLIGTVGFDQGRGDLLNVLSVKFAEPEAEQLEEPPIWEHPNFSDWVRWFASALVIIVVVLVLVRPAMKKLLNPTSDDEDEMYGPDGLPIGADGETSLIGSDIESSELFEFGSSIDLPNLHKDEDVLKAVRALVANEPELAAQVVKNWMNDNG
notes: FliF, MS ring subunit of the polar flagellar motor, Vibrio alginolyticus; domains RBM2, RBM3, β-collar; extended peptide loops LA, LB, LC; 34 subunits form the MS ring; 23 RBM2 domains seen in the RBM2 subring; also called MS ring protein; FliF peptide loops LA, LB, LC; source: endogenous, purified within the polar flagellar motor-hook complex from V. alginolyticus KK148 ΔflgL
Q: Which “stoichiometry N” value [4] does the source give for B1 here?
A: The value was 34.
